Data from US20170165366A1.

Target: mouse TIGIT-His (SEQ ID NO: 3) (mouse) (UniProt P86176)
Test: BLI (Octet QKe), SEC1 on AMC sensor, mouse TIGIT-His 33 to 1.22 nM, 1:1 global fit

mouse TIGIT-His (SEQ ID NO: 3) (mouse), sequence (P86176 other isoform, or with tags, fused parts or gaps limits assumed, form in doubt): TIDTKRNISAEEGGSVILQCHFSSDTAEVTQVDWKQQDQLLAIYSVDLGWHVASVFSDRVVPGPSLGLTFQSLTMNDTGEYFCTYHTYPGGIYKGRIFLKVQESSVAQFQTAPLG

B1: SEC1 mouse IgG2a N297A (antibody, V domains shown)
VH: EVQLVESGGGLTQPGKSLKLSCEASGFTFSSFTMHWVRQSPGKGLEWVAFIRSGSGIVFYADAVRGRFTISRDNAKNLLFLQMNDLKSEDTAMYYCARRPLGHNTFDSWGQGTLVTVSS
VL: DIVMTQSPSSLAVSPGEKVTMTCKSSQSLYYSGVKENLLAWYQQKPGQSPKLLIYYASIRFTGVPDRFTGSGSGTDYTLTITSVQAEDMGQYFCQQGINNPLTFGDGTKLEIKR
Kd: 0.32 nM
koff: 0.0006 s⁻¹
kon: 1.9e+06 M⁻¹ s⁻¹
